The text below walks through data of patent US20240101647A1 (VIB VZW, published 2024).

Where a chain is given by its changes, count along the chain named.

Test [1] addresses SARS-CoV-2 spike protein on VSV-delG pseudovirus particles or on cells (SARS-CoV-2, UniProt P0DTC2 14-1273). The experiment in a line: cell-based or functional assay.
The target of a further test is T1, BSA (UniProt P02769 25-607).
T1 construct: also called Bovine Serum Albumin
As to the kind of experiment: ELISA, coated BSA. On the technique in general: ELISA stands for enzyme-linked immunosorbent assay.

T1 sequence (P02769 25-607 limits assumed): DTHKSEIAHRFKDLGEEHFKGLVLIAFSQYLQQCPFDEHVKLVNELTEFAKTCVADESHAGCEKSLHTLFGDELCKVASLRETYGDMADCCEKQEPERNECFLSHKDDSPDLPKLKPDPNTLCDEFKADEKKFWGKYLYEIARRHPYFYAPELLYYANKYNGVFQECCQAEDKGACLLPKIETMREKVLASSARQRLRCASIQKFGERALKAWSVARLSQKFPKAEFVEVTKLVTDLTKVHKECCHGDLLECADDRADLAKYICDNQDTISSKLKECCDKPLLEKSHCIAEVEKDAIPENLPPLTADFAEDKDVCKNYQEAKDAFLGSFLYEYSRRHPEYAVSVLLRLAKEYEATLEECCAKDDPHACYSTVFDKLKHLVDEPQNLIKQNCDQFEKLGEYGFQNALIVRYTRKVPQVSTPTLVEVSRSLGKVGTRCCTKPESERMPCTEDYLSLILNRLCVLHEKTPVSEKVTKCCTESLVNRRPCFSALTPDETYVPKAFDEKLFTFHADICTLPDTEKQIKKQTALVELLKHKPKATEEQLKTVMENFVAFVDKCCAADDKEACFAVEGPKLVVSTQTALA

B1: VHH3.42 (VHH)
VHH: QVQLQESGGGLVQPGGSLRLSCAASGSAVSINDMGWYRQPPGKQRELVATITKTGSTNYADSVKGRFTISRDNAKNAVYLEMNSLKPEDTATYYCNAWLPYGMGPDYYGMELWGKGTQVTVSS
Turning to B1, the “neutralization relative to VHH72_h1_S56A” value in test [1] was roughly 6 fold. In the test with BSA, the binding result is on record as “no binding”.

B2: VHH3.92 (VHH)
VHH: B1 VHH with S27K, N32S, S56N, V63A, K64Q, N76S, N83A, T92V
For the molecule B2, the “neutralization relative to VHH72_h1_S56A” value in test [1] was roughly 6 fold.

B3: VHH3.117 (VHH)
VHH: B1 VHH with S27K, N32S, V63A, K64Q, A74T, N76S, N83K, T92V
For the molecule B3, the “neutralization relative to VHH72_h1_S56A” value in test [1] is roughly 6 fold. Moreover, the binding result in the test with BSA was “no binding”.
